Test results as given in US20220073617A1 (Five Prime, published 2022).
Several values for one entry are separate records, joined by “and”; a condition that tells them apart may be missing. Identical values can stand only once.

Assays:
[1] = biological target: T1, monovalent hVISTA-ECD (human VISTA extracellular domain with His tail) (human, UniProt Q9H7M9 33-193); test: SPR, pH 6.0
T1 construct: analyte flowed over captured antibody; also called huVISTA-His
Procedure: (§1) Binding of several preparations of each of the '029 progeny clones and of the parent '029 antibodies, formatted as IgG1.3 antibodies, to human VISTA at pH 6.0 and 7.4 was measured by Surface plasmon resonance (SPR). SPR analysis was performed to measure koff and KD binding affinity measurements for VISTA Abs at acidic and neutral pHs using a Biacore® T100 instrument (GE Healthcare). Protein A (ThermoFisher Scientific catalog #21181) was diluted to 20 ug/ml in 10 mM sodium acetate pH 4.5 and immobilized onto flow cells of a CM5 biosensor following the manufacturer's amine coupling protocol (GE Healthcare), targeting 2,000 RU immobilization density of Protein A per flow cell. SPR experiments were conducted at 37° C. using PBST (137 mM sodium chloride, 2.7 mM potassium chloride, 10 mM phosphate buffer, 0.05% Tween® 20) running buffer at pH 7.4 and 6.0. Antibodies were diluted to 25 nM in PBST pH 7.4, and were captured across active biosensor flow cells at 5 ul/min for 60 seconds. […] Two 15 second injections of 10 mM glycine pH 1.5 were used to regenerate the Protein A capture surface between assay cycles. Rate constants ka (kₒₙ) and kd (koff) were derived from reference flow cell and 0 nM blank-subtracted sensorgrams, and were fit to a 1:1 binding model in Biacore® T200 Evaluation Software v.2.0. The affinity constant, KD was calculated as the ratio of rate constants koff/kₒₙ for each VISTA antibody. […]

[2] = biological target: T1, monovalent hVISTA-ECD (human VISTA …); test: SPR
Procedure: (§2) Binding of several preparations of each of the '029 progeny clones and of the parent '029 antibodies, formatted as IgG1.3 antibodies, to human VISTA at pH 6.0 and 7.4 was measured by Surface plasmon resonance (SPR). SPR analysis was performed to measure koff and KD binding affinity measurements for VISTA Abs at acidic and neutral pHs using a Biacore® T100 instrument (GE Healthcare). Protein A (ThermoFisher Scientific catalog #21181) was diluted to 20 ug/ml in 10 mM sodium acetate pH 4.5 and immobilized onto flow cells of a CM5 biosensor following the manufacturer's amine coupling protocol (GE Healthcare), targeting 2,000 RU immobilization density of Protein A per flow cell. SPR experiments were conducted at 37° C. using PBST (137 mM sodium chloride, 2.7 mM potassium chloride, 10 mM phosphate buffer, 0.05% Tween® 20) running buffer at pH 7.4 and 6.0. Antibodies were diluted to 25 nM in PBST pH 7.4, and were captured across active biosensor flow cells at 5 ul/min for 60 seconds. […] Two 15 second injections of 10 mM glycine pH 1.5 were used to regenerate the Protein A capture surface between assay cycles. Rate constants ka (kₒₙ) and kd (koff) were derived from reference flow cell and 0 nM blank-subtracted sensorgrams, and were fit to a 1:1 binding model in Biacore® T200 Evaluation Software v.2.0. The affinity constant, KD was calculated as the ratio of rate constants koff/kₒₙ for each VISTA antibody.

[3] = biological target: T1, monovalent hVISTA-ECD (human VISTA …); test: SPR; remark: listed apart in the source
Procedure: as §1

[4] = biological target: T1, monovalent hVISTA-ECD (human VISTA …); test: SPR, pH 7.4
Procedure: as §2

[5] = biological target: T1, monovalent hVISTA-ECD (human VISTA …); test: SPR, pH 7.4; remark: listed apart in the source
Procedure: as §1

[6] = biological target: T1, monovalent hVISTA-ECD (human VISTA …); test: SPR, pH 6.0; remark: listed apart in the source
Procedure: as §2

[7] = biological target: T1, monovalent hVISTA-ECD (human VISTA …); test: SPR, pH 6.0; remark: listed apart in the source
Procedure: as §2
(§3) This initial campaign led to pH-independent VISTA.4 variants with near equivalent koff at pH 6 and pH 7. In order to obtain an antibody that binds to hVISTA with high affinity at pH 6.0 and low affinity at pH 7.0, a new library based on consensus sequence of pH-independent VISTA.4 variants was designed and constructed, with amino acid residues in the loops substituted for charge amino acid residues (see Example 9), and screened via yeast surface display (see Example 9). The library was analyzed as previously described (see Example 9) and selected variants were reformatted as IgG1.3 for further analysis (Tables 26 and 27). SPR analysis was conducted on these variants using the conditions previously described in Example 9.

[8] = biological target: T1, monovalent hVISTA-ECD (human VISTA …); test: SPR, pH 7.4; remark: listed apart in the source
Procedure: as §2, §3

T1 sequence (Q9H7M9 other isoform, or with tags, fused parts or gaps limits assumed): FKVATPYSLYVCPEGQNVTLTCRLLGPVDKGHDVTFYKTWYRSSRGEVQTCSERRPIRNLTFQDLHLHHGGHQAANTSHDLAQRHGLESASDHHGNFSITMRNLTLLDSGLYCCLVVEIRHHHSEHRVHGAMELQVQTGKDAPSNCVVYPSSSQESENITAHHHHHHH

Kd [1]	koff [1]	kon [1]	pH 6.0/7.4 KD [2]	pH 6.0/7.4 kd [2]	Kd [4] [nM]	kd improvement vs parent [4] [fold]	koff [4] [s⁻¹]	kon [4] [M⁻¹ s⁻¹]	koff [5]	Kd [6] [nM]	kd improvement vs parent [6] [fold]	koff [6] [s⁻¹]	kon [6] [M⁻¹ s⁻¹]	Kd [7] [nM]	koff [7] [s⁻¹]	kon [7] [M⁻¹ s⁻¹]	Kd [8] [nM]	koff [8] [s⁻¹]	kon [8] [M⁻¹ s⁻¹]	other results	Binder
3.86 nM	0.00237 s⁻¹	616000 M⁻¹ s⁻¹	3.3	12	1.4	5.1	0.00017	120000	0.00019 s⁻¹	4.7	51.4	0.0021	450000	–	–	–	–	–	–	KD ratio (pH 7.4/pH 6.0) [3]: 7.88; Kd [5]: 30.4 nM; kon [5]: 6260 M⁻¹ s⁻¹	P1-061528 (41F11 NGS mut VK_A64G/R91A) (antibody, V domains shown, also called P1-061528-2) VH: QVQLVESGGGLVKPGGSLRLSCAASGFTFSDYYMSWIRQAPGKGLEWVSYISNSGSPIYYADSVKGRFTISRDNAKNSLYLQMNSLRAEDTAVYYCARDLPGWYFDLWGRGTLVTVSS VL: EIVLTQSPATLSLSPGERATLSCRASQSVSSYLAWYQQKPGQAPRLLIYDASNRATGIPARFSGSGSGTDFTLTISSLEPEDFAVYYCQQANNWPRTFGQGTKVEIK
–	–	–	0.2	2.1	37	0.1	0.016	430000	–	6.4	3.3	0.033	5.1e+06	10	0.027	2.7e+06	31	0.019	630000	–	P1-064391 (41F11_HC_Mutant: D31E/Y50W/S55E/Y100E 41F11_LC_Mutant: V29D/A64G/R91T) (antibody, V domains shown, Kabat positions; also called P1-064391-1) VH: QVQLVESGGGLVKPGGSLRLSCAASGFTFSEYYMSWIRQAPGKGLEWVSWISNSGEPIYYADSVKGRFTISRDNAKNSLYLQMNSLRAEDTAVYYCARDLPGWEFDLWGRGTLVTVSS VL: EIVLTQSPATLSLSPGERATLSCRASQSDSSYLAWYQQKPGQAPRLLIYDASNRATGIPARFSGSGSGTDFTLTISSLEPEDFAVYYCQQTNNWPRTFGQGTKVEIK
2.51 nM	0.00312 s⁻¹	1.24e+06 M⁻¹ s⁻¹	0.6	4.8	4.1	1.4	0.00064	150000	0.000527 s⁻¹	2.6	35	0.0031	1.2e+06	4.8	0.0036	750000	3.4	0.00039	110000	KD ratio (pH 7.4/pH 6.0) [3]: 33.8; Kd [5]: 84.8 nM; kon [5]: 6220 M⁻¹ s⁻¹	P1-064510 (41F11_Vk_A25E/V29D/A64G/R91T) (antibody, V domains shown, also called P1-064510-1) VH: QVQLVESGGGLVKPGGSLRLSCAASGFTFSDYYMSWIRQAPGKGLEWVSYISNSGSPIYYADSVKGRFTISRDNAKNSLYLQMNSLRAEDTAVYYCARDLPGWYFDLWGRGTLVTVSS VL: EIVLTQSPATLSLSPGERATLSCRESQSDSSYLAWYQQKPGQAPRLLIYDASNRATGIPARFSGSGSGTDFTLTISSLEPEDFAVYYCQQTNNWPRTFGQGTKVEIK
0.172 nM	0.000603 s⁻¹	3.52e+06 M⁻¹ s⁻¹	0.2	1.1	0.76	2.7	0.00033	440000	0.000285 s⁻¹	0.12	294	0.00036	2.9e+06	0.21	0.00051	2.4e+06	0.72	0.00032	450000	KD ratio (pH 7.4/pH 6.0) [3]: 5.73; Kd [5]: 0.986 nM; kon [5]: 289000 M⁻¹ s⁻¹	P1-065326 (41F11_VH_D31E/Y50W/S55E/L96E/Y100E VK_A64G) (antibody, V domains shown, Kabat positions; also called P1-065326-1) VH: QVQLVESGGGLVKPGGSLRLSCAASGFTFSEYYMSWIRQAPGKGLEWVSWISNSGEPIYYADSVKGRFTISRDNAKNSLYLQMNSLRAEDTAVYYCARDEPGWEFDLWGRGTLVTVSS VL: EIVLTQSPATLSLSPGERATLSCRASQSVSSYLAWYQQKPGQAPRLLIYDASNRATGIPARFSGSGSGTDFTLTISSLEPEDFAVYYCQQRNNWPRTFGQGTKVEIK
–	–	–	0.1	1.2	15	0.1	0.007	470000	–	1.8	12.4	0.0086	4.8e+06	1.6	0.012	7.7e+06	11	0.0078	770000	–	P1-064392 (41F11_HC_Mutant: D31E/Y50W/S55E/Y100E 41F11_LC_Mutant: V29D/A64G/Q89E/R91T) (antibody, V domains shown, Kabat positions; also called P1-064392-1) VH: QVQLVESGGGLVKPGGSLRLSCAASGFTFSEYYMSWIRQAPGKGLEWVSWISNSGEPIYYADSVKGRFTISRDNAKNSLYLQMNSLRAEDTAVYYCARDLPGWEFDLWGRGTLVTVSS VL: EIVLTQSPATLSLSPGERATLSCRASQSDSSYLAWYQQKPGQAPRLLIYDASNRATGIPARFSGSGSGTDFTLTISSLEPEDFAVYYCEQTNNWPRTFGQGTKVEIK
34.8 nM and 31.4 nM	0.00726 s⁻¹ and 0.00818 s⁻¹	209000 M⁻¹ s⁻¹ and 260000 M⁻¹ s⁻¹	0.3	4	75	0.3	0.0032	43000	0.00266 s⁻¹ and 0.0023 s⁻¹	22	8.2	0.013	600000	–	–	–	–	–	–	–	P1-064490 (41F11_VH_F27EY50EL96E) (antibody, V domains shown, Kabat positions; also called P1-064490-1; P1-064490-2) VH: QVQLVESGGGLVKPGGSLRLSCAASGETFSDYYMSWIRQAPGKGLEWVSEISNSGSPIYYADSVKGRFTISRDNAKNSLYLQMNSLRAEDTAVYYCARDEPGWYFDLWGRGTLVTVSS VL: EIVLTQSPATLSLSPGERATLSCRASQSVSSYLAWYQQKPGQAPRLLIYDASNRATGIPARFSASGSGTDFTLTISSLEPEDFAVYYCQQRNNWPRTFGQGTKVEIK
